Test results from publication PMC3443672, “The solution structure of the prototype foamy virus RNase H domain indicates an important role of the basic loop in substrate binding”.

Molecular target: PFV RNase H wt (prototype foamy virus, UniProt P14350 591-751)
Experiment: fluorescence anisotropy; 25 nM substrate; Fluorescence anisotropy: 25 nM substrate, excitation 652 nm, emission 673 nm; buffer, salt, pH and temperature not given (as described in ref 5)
Settings: protein: recombinant; label: DY647 at 5' end of DNA strand; blunt

B1: 10/10-mer RNA/5'-DY647-DNA (DNA:RNA)
RNA: GCGACACCUG
DNA: CAGGTGTCGC
Q: Which Kd does the source give for B1 here?
A: 23 ± 3 µM
